Data on five sequences can be found in the supplement of paper PMC12458215.

The series relates to HEK293T. As to the kind of experiment: plasma membrane surface immunostaining intensity (anti-HA, deep receptor scanning) (arbitrary fluorescence units); higher = higher plasma membrane expression.

± gives the uncertainty stated by the source.

With “MDTSRLGVLLSLPVLLQLATGGSSPRSGVLLRGCPTHCHCEPDGRMLLRVDCSDLGLSELPSNLSVFTSYLDLSMNNISQLLPNPLPSLRFLEELRLAGNALTYIPKGAFTGLYSLKVLMLQNNQLRHVPTEALQNLRSLQSLRLDANHISYVPPSCFSGLHSLRHLWLDDNALTEIPVQAFRSLSALQAMTLALNKIHHIPDYAFGNLSSLVVLHLHNNRIHSLGKKCFDGLHSLETLDLNYNNLDEFPTAIRTLSNLKELGFHSNNIRSIPEKAFVGNPSLITIHFYDNPIQFVGRSAFQHLPELRTLTLNGASQITEFPDLTGTANLESLTLTGAQISSLPQTVCNQLPNLQVLDLSYNLLEDLPSFSVCQKLQKIDLRHNEIYEIKVDTFQQLLSLRSLNLAWNKIAIIHPNAFSTLPSLIKLDLSSNLLSSFPITGLHGLTHLKLTGNHALQSLISSENFPELKVIEMPYAYQCCAFGVCENAYKISNQWNKGDNSSMDDLHKKDAGMFQAQDERDLEDFLLDFEEDLKALHSVQCSPSPGPFKPCEHLLDGWLIRIGVWTIAVLALTCNALVTSTVFRSPLYISPIKLLIGVIAAVNMLTGVSSAVLAGVDAFTFGSFARHGAWWENGVGCHVIGFLSIFASESSVFLLTLAALERGFSVKYSAKFETKAPFSSLKVIILLCALLALTMAAVPLLGGSKYGASPLCLPLPFGEPSTMGYMVALILLNSLCFLMMTIAYTKLYCNLDKGDLENIWDCSMVKHIALLLFTNCILNCPVAFLSFSSLINLTFISPEVIKFILLVVVPLPACLNPLLYILFNPHFKEDLVSLRKQTYVWTRSKHPSLMSINSDDVEKQSCDSTQALVTFTSSSITYDLPPSSVPSPAYPVTESCHLSSVAFVPCL [LGR5]”, the “plasma membrane surface immunostaining intensity” value (GPCR class: A) stood at 283 ± 25.

With “MDVLSPGQGNNTTSPPAPFETGGNTTGISDVTVSYQVITSLLLGTLIFCAVLGNACVVAAIALERSLQNVANYLIGSLAVTDLMVSVLVLPMAALYQVLNKWTLGQVTCDLFIALDVLCCTSSILHLCAIALDRYWAITDPIDYVNKRTPRRAAALISLTWLIGFLISIPPMLGWRTPEDRSDPDACTISKDHGYTIYSTFGAFYIPLLLMLVLYGRIFRAARFRIRKTVKKVEKTGADTRHGASPAPQPKKSVNGESGSRNWRLGVESKAGGALCANGAVRQGDDGAALEVIEVHRVGNSKEHLPLPSEAGPTPCAPASFERKNERNAEAKRKMALARERKTVKTLGIIMGTFILCWLPFFIVALVLPFCESSCHMPTLLGAIINWLGYSNSLLNPVIYAYFNKDFQNAFKKIIKCKFCRQ [HTR1A]”, where the note is “GPCR class: A”, the “plasma membrane surface immunostaining intensity” value was 5670 ± 440.

In the case of “MDVVDSLLVNGSNITPPCELGLENETLFCLDQPRPSKEWQPAVQILLYSLIFLLSVLGNTLVITVLIRNKRMRTVTNIFLLSLAVSDLMLCLFCMPFNLIPNLLKDFIFGSAVCKTTTYFMGTSVSVSTFNLVAISLERYGAICKPLQSRVWQTKSHALKVIAATWCLSFTIMTPYPIYSNLVPFTKNNNQTANMCRFLLPNDVMQQSWHTFLLLILFLIPGIVMMVAYGLISLELYQGIKFEASQKKSAKERKPSTTSSGKYEDSDGCYLQKTRPPRKLELRQLSTGSSSRANRIRSNSSAANLMAKKRVIRMLIVIVVLFFLCWMPIFSANAWRAYDTASAERRLSGTPISFILLLSYTSSCVNPIIYCFMNKRFRLGFMATFPCCPNPGPPGARGEVGEEEEGGTTGASLSRFSYSHMSASVPPQ [CCKAR]”, the “plasma membrane surface immunostaining intensity” value (GPCR class: A) is 6447 ± 43.

Consider “MEAANESSEGISFVLLGLTTSPGQQRPLFVLFLLLYVASLLGNGLIVAAIQASPALHAPMYFLLAHLSFADLCFASVTVPKMLANLLAHDHSISLAGCLTQMYFFFALGVTDSCLLAAMAYDCYVAIRHPLPYATRMSRAMCAALVGMAWLVSHVHSLLYILLMARLSFCASHQVPHFFCDHQPLLRLSCSDTHHIQLLIFTEGAAVVVTPFLLILASYGAIAAAVLQLPSASGRLRAVSTCGSHLAVVSLFYGTVIAVYFQATSRREAEWGRVATVMYTVVTPMLNPIIYSLWNRDVQGALRALLIGRRISASDS [OR1K1]”, for which the “plasma membrane surface immunostaining intensity” value (GPCR class: A (Olfactory)) was 223 ± 69.

“MEAENLTELSKFLLLGLSDDPELQPVLFGLFLSMYLVTVLGNLLIILAVSSDSHLHTPMYFFLSNLSFVDICFISTTVPKMLVSIQARSKDISYMGCLTQVYFLMMFAGMDTFLLAVMAYDRFVAICHPLHYTVIMNPCLCGLLVLASWFIIFWFSLVHILLMKRLTFSTGTEIPHFFCEPAQVLKVACSNTLLNNIVLYVATALLGVFPVAGILFSYSQIVSSLMGMSSTKGKYKAFSTCGSHLCVVSLFYGTGLGVYLSSAVTHSSQSSSTASVMYAMVTPMLNPFIYSLRNKDVKGALERLLSRADSCP [OR7D4]”: the “plasma membrane surface immunostaining intensity” value (GPCR class: A (Olfactory)) is 157 ± 48.
